Results: patent US20240043478A1
Blank lines part the entries; values can stand above or below the binder they belong to.

Experiments:
[1] = target: human polyclonal IgG (available from Japan Blood Products Organization) (human); assay: elution ratio at pH 4.0 relative to PN-621
[2] = target: human polyclonal IgG (available from Japan Blood Products Organization) (human); assay: dynamic binding, 3 mg/mL IgG, 10% breakthrough, 5 min retention
[3] = target: human polyclonal IgG (available from Japan Blood Products Organization) (human); assay: immobilised on agarose gel; IgG eluted at pH 4.0 as % of pH 4.0 + pH 2.8 eluates

Elution Ratio, relative ratio with respect to PN-621 [1]: 1.63 | Binding Amount of IgG [2]: 66 mg/mL gel | Elution Ratio (%) under Weakly Acidic Conditions [3]: 75.7%
B1: PN-621 Variant, five sequences α8 and one sequence β8 (designed binder)
chain: ADNIFNREVQAAFYHILHLPNLTEEQRNAFIQSLRDDPSVVAEILAEARRLNDAQAPRADNIFNREVQAAFYHILHLPNLTEEQRNAFIQSLRDDPSVVAEILAEARRLNDAQAPRADNIFNREVQAAFYHILHLPNLTEEQRNAFIQSLRDDPSVVAEILAEARRLNDAQAPRADNIFNREVQAAFYHILHLPNLTEEQRNAFIQSLRDDPSVVAEILAEARRLNDAQAPRADNIFNREVQAAFYHILHLPNLTEEQRNAFIQSLRDDPSVVAEILAEARRLNDAQAPRADNIFNREVQAAFYHILHLPNLTEEQRNAFIQSLRDDPSKVKKILKEAKKLNKAQAPK

Elution Ratio, relative ratio with respect to PN-621 [1]: 1.79 | Binding Amount of IgG [2]: 69 mg/mL gel | Elution Ratio (%) under Weakly Acidic Conditions [3]: 82.9%
B2: PN-621 Variant, five sequences α10 and one sequence β10 (designed binder)
chain: ADNIFNEELQHAFYLILHLPNLTEEQRNAFIQSLRDDPSVVAEILAEARRLNDAQAPRADNIFNEELQHAFYLILHLPNLTEEQRNAFIQSLRDDPSVVAEILAEARRLNDAQAPRADNIFNEELQHAFYLILHLPNLTEEQRNAFIQSLRDDPSVVAEILAEARRLNDAQAPRADNIFNEELQHAFYLILHLPNLTEEQRNAFIQSLRDDPSVVAEILAEARRLNDAQAPRADNIFNEELQHAFYLILHLPNLTEEQRNAFIQSLRDDPSVVAEILAEARRLNDAQAPRADNIFNEELQHAFYLILHLPNLTEEQRNAFIQSLRDDPSKVKKILKEAKKLNKAQAPK
